{
  "source": "paper PMC5372681",
  "about": "“Study of Different Variants of Mo Enzyme crARC and the Interaction with Its Partners crCytb5-R and crCytb5-1” (International Journal of Molecular Sciences, 2017)",
  "binders": {"B1": {"name": "crCytb5-R, Chlamydomonas reinhardtii NADH cytochrome b5 reductase (enzyme)", "chain": "MEEAGSEVMRSVITLLSYWQVGAGLLVVLVLIQALVFLRKKTKKPFLDPSEFQPVPLVEKTLITHNTVRLRFALPDPEQRVGLPIGQHISFKAQGEDGKDVIRPYTPVSDDDQLGAVDFVIKLYPTGKMSQVIAKMQLGDTMLMKGPKGRFTYTPNMVKHFGMLAGGTGITPMFQVLNAILKNPRDTTSVTLLYGNLTEEDILLRKELDELVAMHGNRLTVYHVLNTPPVDKEWSGGSGFISSELIRTKFPAPSSDIMTLRCGPSPMMVAMEKALTDLGYAEDKQFQF"}},
  "biological_target": "T1, crARC, Chlamydomonas reinhardtii mARC (mitochondrial Amidoxime Reducing Component), wild type (Chlamydomonas reinhardtii)",
  "T1 construct": "crARC, Chlamydomonas reinhardtii mARC, GenPept XP_001694549; Carries the Mo Cofactor; The mutant cDNAs were cloned in pQE80 (N-terminal six histidines); also called wild type crARC; Mo enzyme crARC; source: E. coli TP1000 (mobA), purified (Ni-NTA, PD10 desalting)",
  "experiment": "SEC; two proteins incubated together for 10 min, then loaded; 15 pmol of each; Superdex 200 10/300 GL, 50 mM phosphate buffer pH 7.2, 0.15 M NaCl, 0.75 mL/min; peak fractions checked by SDS-PAGE",
  "details": "both partners purified",
  "data": [
    {"binder": "B1", "values": [
      {"measurement": "stoichiometry N", "result": 1, "unit": "crCytb5-R per crARC"}
    ]}
  ]
}
